Patent US20020032322A1

Molecular target: TWIK-1 (human)
Assay: cell-based or functional assay

## apamin (from UniProt P01500 28-45) (peptide)
  inhibition of TWIK-1 K+ currents (voltage clamp, Xenopus oocytes): < 10 % inhibition

## charybdotoxine (from UniProt P13487 23-59) (peptide)
  inhibition of TWIK-1 K+ currents (voltage clamp, Xenopus oocytes): < 10 % inhibition

## dedrotoxine (peptide)
  inhibition of TWIK-1 K+ currents (voltage clamp, Xenopus oocytes): < 10 % inhibition
